# Article PMC10985467 (Molecular Cancer Therapeutics, 2024)
# B1: ADCT-602 (hLL2-C220 site-specifically conjugated to the PBD dimer payload tesirine, SG3249) (antibody, V domains shown)
# VH: QVQLVQSGAEVKKPGSSVKVSCKASGYTFTSYWLHWVRQAPGQGLEWIGYINPRNDYTEYNQNFKDKATITADESTNTAYMELSSLRSEDTAFYFCARRDITTFYWGQGTLVTVSS
# VL: DIQLTQSPSSLSASVGDRVTMSCKSSQSVLYSANHKNYLAWYQQKPGKAPKLLIYWASTRESGVPSRFSGSGSGTDFTFTISSLQPEDIATYYCHQYLSSWTFGQGTKVEIK
# Target: CD22 on human lymphoma and leukemia cell lines (Homo sapiens (Human)., UniProt P20273)
# Assay: cell-based or functional assay
# Chain of CD22 on human lymphoma and leukemia cell lines (P20273 20-847): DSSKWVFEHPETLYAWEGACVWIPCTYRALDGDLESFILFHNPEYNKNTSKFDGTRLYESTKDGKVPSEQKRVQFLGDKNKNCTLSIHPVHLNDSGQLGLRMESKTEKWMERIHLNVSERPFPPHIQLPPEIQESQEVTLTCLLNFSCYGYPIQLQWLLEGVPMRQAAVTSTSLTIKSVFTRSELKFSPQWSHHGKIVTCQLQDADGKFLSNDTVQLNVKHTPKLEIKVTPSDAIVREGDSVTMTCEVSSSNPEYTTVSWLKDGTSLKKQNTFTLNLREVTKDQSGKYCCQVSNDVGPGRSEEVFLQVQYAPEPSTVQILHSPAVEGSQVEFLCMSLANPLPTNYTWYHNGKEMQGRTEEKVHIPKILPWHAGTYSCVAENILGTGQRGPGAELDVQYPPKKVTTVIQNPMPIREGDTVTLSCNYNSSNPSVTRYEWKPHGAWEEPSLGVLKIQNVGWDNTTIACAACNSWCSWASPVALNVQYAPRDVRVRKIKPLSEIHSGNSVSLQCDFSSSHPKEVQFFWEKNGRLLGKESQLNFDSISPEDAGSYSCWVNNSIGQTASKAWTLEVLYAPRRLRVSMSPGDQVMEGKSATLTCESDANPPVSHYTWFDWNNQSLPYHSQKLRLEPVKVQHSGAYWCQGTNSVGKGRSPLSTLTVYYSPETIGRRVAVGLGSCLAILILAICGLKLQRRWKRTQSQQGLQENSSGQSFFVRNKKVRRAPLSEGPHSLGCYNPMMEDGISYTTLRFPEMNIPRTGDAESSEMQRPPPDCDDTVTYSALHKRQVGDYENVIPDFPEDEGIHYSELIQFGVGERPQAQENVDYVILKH
binder,measurement,value
B1,"IC50 of in vitro cytotoxicity (MTS, 96 hours), DO HH-2 cells",0.06 nM
same,"IC50 of in vitro cytotoxicity (MTS, 96 hours), Daudi cells",0.07 nM
same,"IC50 of in vitro cytotoxicity (MTS, 96 hours), GRANTA-519 cells",0.02 nM
same,"IC50 of in vitro cytotoxicity (MTS, 96 hours), MEC-2 cells",0.18 nM
same,"IC50 of in vitro cytotoxicity (MTS, 96 hours), NALM-6 cells",0.11 nM
same,"IC50 of in vitro cytotoxicity (MTS, 96 hours), NAMALWA cells",2.27 nM
same,"IC50 of in vitro cytotoxicity (MTS, 96 hours), REH cells",0.05 nM
same,"IC50 of in vitro cytotoxicity (MTS, 96 hours), Ramos cells",0.06 nM
